From patent US6623741B1, “Methods and compositions for inhibition of membrane fusion-associated events including RSV transmission” (Trimeris, Inc., priority 2000, dated 2003)
pIC50: −log10 of the molar value.

Legend:
[1] = Circular dichroism spectroscopy (helicity, thermal stability); format: physicochemical
Experimental: Circular Dichroism Spectroscopy:
Circular Dichroism (CD) spectra were obtained using an AVIV Associates 62DS spectrometer equipped with a thermoelectric temperature controller. Spectra were obtained in 0.1, 0.5 and 1.0 cm quartz cells at 1° C. with 0.5 nm steps from 200 to 260 nm, 1.5 nm bandwidth and an averaging time of 4 sec/step. After the cell/buffer blank was subtracted, spectra were smoothed using a third-order least-squares polynomial fit with a conservative (5-10 point) window size to give random residuals. Mixing experiments were performed by comparing the spectrum of the two peptides mixed together in a 0.1 cm path length cell at the desired concentrations (referred to herein as the “experimental” spectrum) to the sum of the individual spectra of the peptides, each solution in a 0.1 cm path length cell (referred to herein as the “model spectrum” for no peptide interaction or “model for no interaction”).
Raw ellipticity values were converted to mean residue ellipticity using standard methods (Cantor & Schimmel, 1980, Biophysical Chemistry Part II: Techniques for the Study of Biological Structure and Function, W.H. Freeman and Co., New York). Conversions for the mixing experiment spectra were performed using a peptide length corresponding to the average of the two peptides. Thermal stability measurements were performed in 2° C. steps, with 1 minute equilibration times. Spectra were smoothed, converted to mean residue ellipticity, and the corresponding value at 222 nm noted from each spectrum. Percent helicity values were calculated using single value decomposition with a basis set of 33 protein spectra (Johnson & Curtis, 1990, Proteins: Structure, Function and Genetics 7:205-214).

[2] = Analytical ultracentrifugation (sedimentation equilibrium); format: physicochemical
Experimental: Analytical Ultracentrifugation:
Sedimentation equilibrium experiments were performed on a Beckman Optima XL-A analytical ultracentrifuge at 4° C. Six-channel cells (12 mm optical path length) were used with an An-60 Ti rotor operated at 13,500, 16,000, 17,000, 20,000, 21,000, 24,000, 25,000, 27,500, 30,000 and 35,000 rpm. The cell radii were scanned using 0.001 cm steps with 10 averages/scan. Data were analyzed using Beckman XLA data analysis software (version 3.01 for Windows) and Beckman-Origin software (version 3.78 for Windows). […] The partial specific volumes were held constant for all models considered.
Single data files were normalized to 270 nm absorbance values using Beer's Law. The data obtained with solutions containing the DP107-like peptides were then analyzed using a single ideal species model to determine a weight-averaged molecular weight (Mw). Diagnostic plots of Mw/Mw0 vs. rpm/rpm0 and Mw vs. radial concentration were used to test for sample homogeneity as described, e.g., by McRorie & Voelker, 1993, Self-Associating Systems in the Analytical Ultracentrifuge, Beckman Instruments, Inc., Palo Alto; and Yphantis et al., 1978, in Physical Aspects of Protein Interactions: Proceedings of the Symposium on Protein Interactions, American Chemical Society Meeting, Catsimpoolas, Ed., pp. 275-303, Elsevier, Miami Beach, Fla. When systematic residuals or a Mw higher than the monomer molecular weight indicated the presence of self-association, associative models such as monomer/trimer, monomer/tetramer and monomer/dimer/tetrarner were investigated. The suitability of a particular model (i.e., the goodness of fit) was judged by the trends observed in the residuals (Johnson & Straume, 1994, in Modern Analytical Ultracentrifugation, Schuster et al., eds., pp. 37-65, Birkhauser, Boston). Using the associative model which produced random residuals when fitting individual data files, a simultaneous, global, weighted fit of multiple data files (up to nine files with different concentrations and speeds) was performed to determine the association constant and 95% confidence intervals. To convert the resulting association constant from absorbance units to concentration units, it was assumed that the absorbance of the n-mer is n times that of the monomer.
The data obtained with DP107-like/DP178-like peptide mixtures were first analyzed with a single ideal species model. When a systematic trend in residuals coupled with the Mw not equal to a precise multimer of HR1+HR2 were obtained, and alternate fitting scheme was explored. For this approach, it was assumed that the solution contained fully associated HR1-HR2 complexes and unassociated DP107-like and DP178-like peptides. The mixtures were analyzed with a two-ideal species model, choosing one species to have a molecular weight of either 28,269 Da (corresponding to three DP107-like plus three DP178-like peptides) or […] (corresponding to four DP107-like plus four DP178-like peptides).

[3] = test system: HIV-1 (HIV-1LAI, HIV-1MN, HIV-1RF, HIV-1SF2); format: cell-based; conditions: lowest concentration tested, FIG. 4B
Experimental: Approximately 7×10^4 Molt cells were incubated with 1×10^4 CEM cells chronically infected with the HIV-1LAI virus in 96-well plates (one-half area cluster plates; Costar, Cambridge, Mass.) in a final volume of 100 μl culture medium as previously described (Matthews, T. J. et al., 1987, Proc. Natl. Acad. Sci. USA 84: 5424-5428). Peptide inhibitors were added in a volume of 10 μl and the cell mixtures were incubated for 24 hr. at 37° C. At that time, multinucleated giant cells were estimated by microscopic examination at a 40× magnification which allowed visualization of the entire well in a single field.
The initial screen for antiviral activity assayed peptides' ability to block syncytium formation induced by overnight co-cultivation of uninfected Molt 4 cells with chronically HIV-1 infected CEM cells. […] In the first of these experiments, serial DP178 (SEQ ID NO:15) peptide concentrations between 10 μg/ml and 12.5 ng/ml were tested for blockade of the cell fusion process. For these experiments, CEM cells chronically infected with either HIV-1LAI, HIV-1MN, HIV-1RF, or HIV-1SF2 virus were cocultivated overnight with uninfected Molt 4 cells.
The next series of experiments involved the preparation and testing of a DP178 (SEQ ID NO:15) homolog for its ability to inhibit HIV-1-induced syncytia formation.
The next series of experiments involved a comparison of DP178 (SEQ ID NO:15) HIV-1 and HIV-2 inhibitory activity.

M41Δ178 fusion protein = assay: T83 ELARA (Biot-T20) IC50 Conc. (nM)
Source text: Table printed on a drawing sheet, FIG.24A
Head of the field: T83 ELARA (Biot-T20) IC50 Conc. (nM)
The patent's description of the figure: FIGS. 24A-B: Circular dichroism, cell fusion and competitive inhibition data for alanine walk experiments for the peptide T20, which is also known as DP178.
First copying reader's note: The table breaks off at the bottom of the sheet and continues on FIG. 24B; substituted alanine residues are printed in bold, and the T1342 FP column is empty on this sheet.

Row | Substance | %-Helicity ([1]; 35 μM peptide, PBS pH 7) [%] | Tm (midpoint of melting transition) ([1]; 35 μM peptide, PBS pH 7) [°C] | IC50 (RSV) [µg/mL] | N-mer (weight-averaged molecular weight divided by monomer molecular weight) ([2]; 35 μM) | pIC50 (M41Δ178 fusion protein) | further results
1 | Ac-VLHLEGEVNKIKSALLSTNKAVVSLSNGVSVLTSKVLDLKNYIDKQ-NH2 (N-terminus and C-terminus assumed) [Peptide T1581] | 69 | 31 | 3.36 | 1.8 |  | 
2 | T1590: RSV HR1 (DP107-like) peptide of FIG. 28, shorter than T1581 (Ac-VLHLEGEVNKIKSALLSTNKAVVSLSNGVSVLTSKVLDLKNYI-NH2) [Peptide T1590] | 10 | <10 |  |  |  | 
3 | YTNTIYTLLEESQNQQEKNEQELLELDKWASLWNWF [DP-185] |  |  |  |  |  | concentration exhibiting inhibitory activity on HIV-1-induced syncytia formation [3]: ≤ 312.5 ng/mL
4 | Ac-YTSLIHSLIEESQNQQEKNEQELLELDKWAAAANWF-NH2 [T869] |  |  |  |  | 7.24 | 
5 | Ac-SGVAVSKVLHLEGEVNKIKSALLSTNKAVVSLSNGVSVLTSKVLDLKNYIDKQL-NH2 (N-terminus and C-terminus assumed) [Peptide T1623] | 88 | 55 | 0.80 | 2.2 |  | 
6 | AVSKVLHLEGEVNKIKSALLSTNKAVVSLSNGVSVLTSKVLDLKNYIDKQ (Ac-AVSKVLHLEGEVNKIKSALLSTNKAVVSLSNGVSVLTSKVLDLKNYIDKQ-NH2) [Peptide T1772, RSV DP107-like peptide, residues 153-202 of the RSV F-protein] | 83 | 42 |  |  |  | %-Helicity ([1]; 1 μM T1772): 67%; Tm ([1]; 1 μM T1772): 30 °C; %-Helicity ([1]; 10 μM T1772): 80%; Tm ([1]; 10 μM T1772): 32 °C; %-Helicity ([1]; 50 μM T1772): 84%; Tm ([1]; 50 μM T1772): 42 °C; %-Helicity ([1]; 100 μM T1772): 90%; Tm ([1]; 100 μM T1772): 46 °C; oligomerization state in solution (in words) [2]: trimeric self-association; N-mer (weight-averaged molecular weight divided by monomer molecular weight) ([2]; 25 μM determination): 2.4; Mw, single ideal species model, single data set ([2]; 100 μM, 24,000 rpm): 12,925 Da; average Mw relative to the monomer molecular weight ([2]; average over concentrations): 2.4 times
7 | Ac-YTSLIHSLIEESQNQQEKNEQAAAELDKWASLWNWF-NH2 [T872] |  |  |  |  | 7.18 | 
8 | T871: T20 with three consecutive residues changed to three alanine residues (YTSLIHSLIEESQNQQEKNEQELLAAAKWASLWNWF) [Peptide T871] |  |  |  |  | 5.94 | 
9 | T1582: RSV HR1 (DP107-like) peptide of FIG. 28, shorter than T1581 (Ac-VLHLEGEVNKIKSALLSTNKAVVSLSNGVSVLTSKVLDLKNYIDK-NH2) [Peptide T1582] | 49 | 22 |  | 1.5 |  | 
10 | Ac-SKVLHLEGEVNKIKSALLSTNKAVVSLSNGVSVLTSKVLDLKNYIDKQ-NH2 [Peptide T1583] |  |  | 1.09 |  |  | 
11 | Ac-AVSKVLHLEGEVNKIKSALLSTNKAVVSLSNGVSVLTSKVLDLKNYIDKQL-NH2 (N-terminus and C-terminus assumed) [Peptide T1584] | 90 | 53 | 0.23 | 2.1 |  | 
12 | T876: T20 with three consecutive residues changed to three alanine residues (YTSLIHSLIAAAQNQQEKNEQELLELDKWASLWNWF) [Peptide T876] |  |  |  |  | 7.54 | 
